Data reported in paper PMC7717987, “αIIbβ3 variants in ten families with autosomal dominant macrothrombocytopenia: Expanding the mutational and clinical spectrum” (PLoS ONE, 2020).

Columns and labels:
Conditions in all cases: partners not purified
[1] = target: T1, integrin αIIbβ3 (human (endogenous in platelets), UniProt P08514-1 32-1039; P05106-1 27-788); test: flow cytometry on cells; citrated whole blood of healthy controls stimulated with TRAP-6 (20 μM); platelets gated on FSC/SSC and CD42b; bound fibrinogen detected with FITC anti-bFG (clone 9F9); platelet activation index = (MFI test tube - MFI with EDTA 7 mM) / MFI with EDTA
T1 construct: integrin alpha-IIb (αIIb, GPIIb), human; integrin beta-3 (β3, GPIIIa, CD61), human; The platelets of the heterozygous patients carry wild-type and variant integrin together and are not made molecules; also called glycoprotein (GP) IIb/IIIa receptor complex; GPIIb/IIIa; source: endogenous, on platelets in citrated whole blood of healthy blood donors

[2] = target: T1, integrin αIIbβ3; test: as above; remark: listed apart in the source
[3] = target: T1, integrin αIIbβ3; test: flow cytometry on cells; citrated whole blood of healthy controls stimulated with ADP (10 μM); platelets gated on FSC/SSC and CD42b; bound fibrinogen detected with FITC anti-bFG (clone 9F9); platelet activation index = (MFI test tube - MFI with EDTA 7 mM) / MFI with EDTA
[4] = target: T1, integrin αIIbβ3; test: as above; remark: listed apart in the source

B1: fibrinogen (complex, human (endogenous in whole blood))
chain 1: ADSGEGDFLAEGGGVRGPRVVERHQSACKDSDWPFCSDEDWNYKCPSGCRMKGLIDEVNQDFTNRINKLKNSLFEYQKNNKDSHSLTTNIMEILRGDFSSANNRDNTYNRVSEDLRSRIEVLKRKVIEKVQHIQLLQKNVRAQLVDMKRLEVDIDIKIRSCRGSCSRALAREVDLKDYEDQQKQLEQVIAKDLLPSRDRQHLPLIKMKPVPDLVPGNFKSQLQKVPPEWKALTDMPQMRMELERPGGNEITRGGSTSYGTGSETESPRNPSSAGSWNSGSSGPGSTGNRNPGSSGTGGTATWKPGSSGPGSTGSWNSGSSGTGSTGNQNPGSPRPGSTGTWNPGSSERGSAGHWTSESSVSGSTGQWHSESGSFRPDSPGSGNARPNNPDWGTFEEVSGNVSPGTRREYHTEKLVTSKGDKELRTGKEKVTSGSTTTTRRSCSKTVTKTVIGPDGHKEVTKEVVTSEDGSDCPEAMDLGTLSGIGTLDGFRHRHPDEAAFFDTASTGKTFPGFFSPMLGEFVSETESRGSESGIFTNTKESSSHHPGIAEFPSRGKSSSYSKQFTSSTSYNRGDSTFESKSYKMADEAGSEADHEGTHSTKRGHAKSRPVRGIHTSPLGKPSLSP
chain 2: QGVNDNEEGFFSARGHRPLDKKREEAPSLRPAPPPISGGGYRARPAKAAATQKKVERKAPDAGGCLHADPDLGVLCPTGCQLQEALLQQERPIRNSVDELNNNVEAVSQTSSSSFQYMYLLKDLWQKRQKQVKDNENVVNEYSSELEKHQLYIDETVNSNIPTNLRVLRSILENLRSKIQKLESDVSAQMEYCRTPCTVSCNIPVVSGKECEEIIRKGGETSEMYLIQPDSSVKPYRVYCDMNTENGGWTVIQNRQDGSVDFGRKWDPYKQGFGNVATNTDGKNYCGLPGEYWLGNDKISQLTRMGPTELLIEMEDWKGDKVKAHYGGFTVQNEANKYQISVNKYRGTAGNALMDGASQLMGENRTMTIHNGMFFSTYDRDNDGWLTSDPRKQCSKEDGGGWWYNRCHAANPNGRYYWGGQYTWDMAKHGTDDGVVWMNWKGSWYSMRKMSMKIRPFFPQQ
chain 3: YVATRDNCCILDERFGSYCPTTCGIADFLSTYQTKVDKDLQSLEDILHQVENKTSEVKQLIKAIQLTYNPDESSKPNMIDAATLKSRKMLEEIMKYEASILTHDSSIRYLQEIYNSNNQKIVNLKEKVAQLEAQCQEPCKDTVQIHDITGKDCQDIANKGAKQSGLYFIKPLKANQQFLVYCEIDGSGNGWTVFQKRLDGSVDFKKNWIQYKEGFGHLSPTGTTEFWLGNEKIHLISTQSAIPYALRVELEDWNGRTSTADYAMFKVGPEADKYRLTYAYFAGGDAGDAFDGFDFGDDPSDKFFTSHNGMQFSTWDNDNDKFEGNCAEQDGSGWWMNKCHAGHLNGVYYQGGTYSKASTPNGYDNGIIWATWKTRWYSMKKTTMKIIPFNRLTIGEGQQHHLGGAKQAGDV
notes: fibrinogen alpha chain, human; fibrinogen beta chain, human; fibrinogen gamma chain, human; Plasma fibrinogen of the donor's own blood; no fibrinogen was added; also called FG; soluble FG; source: endogenous, in citrated whole blood of healthy blood donors; copies: + +
platelet activation index (PAI) by bound fibrinogen, median [1]: 16 fold increase in MFI over EDTA
platelet activation index (PAI) by bound fibrinogen, mean [2]: 15 fold increase in MFI over EDTA
platelet activation index (PAI) by bound fibrinogen, median [2]: 13 fold increase in MFI over EDTA
platelet activation index (PAI) by bound fibrinogen, mean [3]: 19 fold increase in MFI over EDTA
platelet activation index (PAI) by bound fibrinogen, median [3]: 17 fold increase in MFI over EDTA
platelet activation index (PAI) by bound fibrinogen, median [4]: 19 fold increase in MFI over EDTA
